Assay results taken from patent US20120100582A1 (DSM IP ASSETS B V, published 2012).

Target: the molecule itself
Assay: method not named, self-association

B1: APLE L43D variant (enzyme)
chain: GQPASPPVVDTAQGRVLGKYVSLEGLAQPVAVFLGVPFAKPPDGSLRFAPPQPAEPWSFVKNTTSYPPMCCQEPIGGQMLSDLFTNRKERLIPEFSEDCLYLNIYTPADLTKRGRLPVMVWIHGGGLVVGGASTYDGLALAAHENVVVVAIQYRLGIWGFFSTGDEHSRGNWGHLDQVAALHWVQENIANFGGDPGSVTIFGESAGGESVSVLVLSPLAKNLFHRAISESGVAFTAGLVRKDMKAAAKQIAVLAGCKTTTSAVFVHCLRQKSEDELLDLTLKMKFFALDLHGDPRESHPFLTTVVDGVLLPKMPEEILAEKDFNTVPYIVGINKQEFGWLLPTMMGFPLSEGKLDQKTATSLLWKSYPIANIPEELTPVATDKYLGGTDDPVKKKDLFLDLMGDVVFGVPSVTVARQHRDAGAPTYMYEFQYRPSFSSDKKPKTVIGDHGDEIFSVFGFPLLKGDAPEEEVSLSKTVMKFWANFARSGNPNGEGLPHWPMYDQEEGYLQIGVNTQAAKRLKGEEVAFWNDLLSKEAAKKPPKIKHAEL
**Q.** Does B1 bind?
**A.** Result: no binding
